# In article PMC3046063 (Molecular Biology of the Cell, 2011):
# B1: His-GIV-CTs (aa 1660–1870) (domain or fragment, UniProt Q3V6T2-3 1660-1870, looked up)
# chain: SETLESRHHKIKTGSPGSEVVTLQQFLEESNKLTSVQIKSSSQENLLDEVMKSLSVSSDFLGKDKPVSCGLARSVSGKTPGDFYDRRTTKPEFLRPGPRKTEDTYFISSAGKPTPGTQGKIKLVKESSLSRQSKDSNPYATLPRASSVISTAEGTTRRTSIHDFLTKDSRLPISVDSPPAAADSNTTAASNVDKVQESRNSKSRSREQQSS
# Experiments:
# His-Gαi3 [1] = molecular target: T1, His-Gαi3 (UniProt P08753 1-354)
# His-Gαi3 [2] = molecular target: T1, His-Gαi3; experiment: SEC
# His-Gαi3 [3] = molecular target: T1, His-Gαi3; experiment: cell-based or functional assay
# T1 sequence (P08753 whole entry): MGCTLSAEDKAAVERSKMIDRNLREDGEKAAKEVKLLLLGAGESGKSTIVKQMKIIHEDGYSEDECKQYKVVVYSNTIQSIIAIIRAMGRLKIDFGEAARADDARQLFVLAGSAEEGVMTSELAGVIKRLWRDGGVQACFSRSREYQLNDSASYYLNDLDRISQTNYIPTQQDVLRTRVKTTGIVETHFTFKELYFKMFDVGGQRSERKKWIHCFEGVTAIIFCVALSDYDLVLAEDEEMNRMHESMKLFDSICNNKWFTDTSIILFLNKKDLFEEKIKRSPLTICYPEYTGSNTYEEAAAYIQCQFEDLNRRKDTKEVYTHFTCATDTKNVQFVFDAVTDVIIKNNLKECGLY
binder,measurement,setting,value
B1,Kd,His-Gαi3 [1],~300 nM
same,stoichiometry N,His-Gαi3 [2],1 His-Gαi3:His-GIV-CTs
same,steady-state GTPase activity of His-Gαi3 (50 nM) alone with 0-2 μM His-GIV-CTs,His-Gαi3 [3],~3 fold
